Measured values reported in publication PMC4664390.

Biological target: CmbHLH2 (Chrysanthemum morifolium)
Sequence (main, as listed by the source): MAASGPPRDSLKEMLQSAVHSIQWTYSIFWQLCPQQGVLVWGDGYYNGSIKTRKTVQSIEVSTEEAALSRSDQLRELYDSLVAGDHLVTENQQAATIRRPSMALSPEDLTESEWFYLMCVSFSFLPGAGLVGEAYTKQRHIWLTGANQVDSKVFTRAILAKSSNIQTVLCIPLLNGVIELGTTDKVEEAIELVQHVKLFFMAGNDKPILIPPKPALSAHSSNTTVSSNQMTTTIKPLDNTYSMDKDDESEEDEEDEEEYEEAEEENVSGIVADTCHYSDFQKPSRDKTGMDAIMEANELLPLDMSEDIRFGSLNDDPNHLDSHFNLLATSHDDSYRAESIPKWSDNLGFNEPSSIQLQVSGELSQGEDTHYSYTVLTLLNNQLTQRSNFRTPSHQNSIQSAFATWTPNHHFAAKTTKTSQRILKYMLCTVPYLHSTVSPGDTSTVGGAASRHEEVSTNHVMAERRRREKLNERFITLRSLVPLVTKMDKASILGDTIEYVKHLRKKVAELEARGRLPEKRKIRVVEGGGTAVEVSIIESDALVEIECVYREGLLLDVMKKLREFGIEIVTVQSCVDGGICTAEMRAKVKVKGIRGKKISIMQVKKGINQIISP

CmDFR promoter activity in dual luciferase assay (LUC/REN) in tobacco leaves on co-expression of CmbHLH2 with CmMYB6, relative to the empty vector set as one: > 40 fold
Substance: CmMYB6 (natural protein)
